In article PMC5135098, “Attenuation of Quorum Sensing Regulated Virulence of Pectobacterium carotovorum subsp. carotovorum through an AHL Lactonase Produced by Lysinibacillus sp. Gs50” (PLoS ONE, 2016):

Tested on: CCCCCC(=O)NC1CCOC1=O
Assay: purified protein
Settings: pH 8.0, 50 mM Tris-Cl, 35°C (methods: 30°C, 2 h for saturation curve), no added metal

AdeH (Lysinibacillus sp. Gs50) gave a Km of 3.089 µM.
